Assay: soluble on expression in E. coli; label from the status in PepcDB or PDB records

Sequence	soluble on expression in E. coli
MGSDKIHHHHHHMSVGIRHDDLRRRNRAMVIAAVRRAGRPSRTEIAATTGLSHSTISAISSDLIGEGILAEGKPSEAGALKRGRPQVGLGLNPEAAAVMTVVLSLNFLSVAVIDYAGQVISEEQRRLDTLTMSREALIGECVAIVRRRLEDPDIDVRSVARIALAIQGITDTEARAMLWSPITPQTDIAFADILEAEFGIPATMENDCNMMAVALRWRDPERYRDDFIAILLSHGIGMGLVLKGELFTGTHSSGGEFGHMIHRPGGALCRCGRRGCVEAYAGNYAIWRNARQLSEDTEPVADVSDAQMRALAATARERDGPEREAYRKAGEALGYGLGSLFALIDPAPVAMVGVSAAAFDLIEPALREAIAQTAGGQHSESISFDTEPNELPLIREGCAMRALTFVDQEIFAPGVQTKAGLAAKKNVA	not soluble
MGSDKIHHHHHHMSVLKGSQNVTICNANGLKLAARLELPDIPPRGMAMIAPAFGCTKEILIASRTARRLLQYGIGSLRLDFTGIGQSEGDFSMTNLDTQVEDFVSAADWLRQHVAAPNILIGHSFGGLVALNACHSIPESRACVTIATPESPAHVLEIIGEDKTREIMQGGATSIEVNRQPYVLRRQFADHARQFRLHDTMQRLRVPVLIMHSPRDEMVPMRHAHAIFETARHPKSLLAIEDADHMVSERPAAEFVASTIGLWGMRYLTDG	not soluble
MGSDKIHHHHHHMSVLNAKECVSPITRSVKYHQQSAEIRALQLQSYKMAKMALDNNLKLVKDKKPAVILDLDETVLNTFDYAGYLIKNCIKYTPETWDKFEKEGSLTLIPGALDFLEYANSKGVKIFYISNRTQKNKAFTLKTLKSFKLPQVSEESVLLKEKGKPKAVRRELVAKDYAIVLQVGDTLHDFDAIFAKDAKNSQEQRAKVLQNAQKFGTEWIILPNSLYGTWEDEPIKAWQNKK	not soluble
MGSDKIHHHHHHMSVPRWVAERTGLPRTAHDAGTIGAAGCTVNRFAVALMPDSGGHPRKPIAGVDAPPPHLLLVARRMTRPGEHMALTTYTPVITVFAAGREWTLERAADLQTLWDNMVEADFGDDERLPYWTELWPSSLVLADWLHDNAGRIRGRTCLDMGCGLGLCSLVGQWLGARVTGMDYEPEALFHARRNAERNRVPQPLWTVMDWRAPAVRRHAADLVWGGDIMYERRFVTPVLDFLDHVLAPCGAAWVAEPGRTVYNHFRETLDARGWHARRVLSSETASLYEQPESVTVHLWEITR	not soluble
MGSDKIHHHHHHMSYGYDKNADDIMKNADHIFEIKGIMRFPDRLKESIGDISIRSFAKKCGLSEGVMRNYLAGKTYPSLDKLALMAEVSNKPLDWLVAGTEHNFNELNEPGSKYVIGINLEEYALIPGYRVQVSAGHGALNCDQQDPVRYLAFRRKWLKYRGFEEHELAIVWAKGDSMEPTIHSNDTLVVHLGRNSPADGHIYIFRNGDDLFVKRYQNAFGSWRLISDNPVYDKLDIPKHEQHQFEVVGQVVHIAKDIGD	not soluble
MGSDKIHHHHHHMTAKVISFINMKGGVGKTTLCVGVSEFMAHFKSKKILLIDLDPQFNATQTLMDMYDLTDQYMNDIRFNKTIRLLFEETHSVSERPVLPKPDKVILHLDTSDVIDGELDIICGSIDLIKDDDSRKSKYKRVRKFLREQGLLKHYDYIFIDCPPTISFYTDAALYASDYYIVPTRIDRYSILGINLLKTVIEQAKFDDDLSIEPLGLIYTNYPTNNIPAPKQQEILDVLEENKDVLEIGVFRNKFHYLEHLMTGKSGNIASKYVKSKKDIEKISVEIESKVH	not soluble
MGSDKIHHHHHHMTALDDKTIVRDYFNATGFDRWSRIYGDGEVNFVQKNIRIGHQRTVDTVLSWLEADGNLSDRSFCDAGCGVGSLSLPLAQRGAQAVYASDISAKMVEEARERASQIPNLNNIQLEVSDLASLSGRYDTVICLDVLIHYPESDAAAMLSHLCSLAEQRVLVSFAPKSPVLNVLKRIGQFFPGASKTTRAYQHSETAIAAALAANGFQVQRRAFNKAPFYFSLLLEAVRTA	not soluble
MGSDKIHHHHHHMTDFSQLPNAAGVGYKPQHFQNIIDGSGAVDWLEIHAENYMGDGGRPLAQLRHLAERFPISVHGVGLSIGGEGPLDPEHLARLKHLVDWLKPASFSEHLAWSTHDTHFYNDLLPLPYTDATLARICDHIDMVQTLLGRRMLLENPSSYLAFAESTWEEPAFLHEIAKRTGCGLLLDVNNVFVSATNLGYRPQDYIDAYPLDLVGEIHLGGHDEDEDDHGRPLLIDSHGAEVVDPVWSLLSYTLTRSGPKPTLVEWDTDVPEWSVLEAEAARAANALRTAKVAA	not soluble
MGSDKIHHHHHHMTDKMQSLALAPVGNLDSYIRAANAWPMLSADEERALAEKLHYHGDLEAAKTLILSHLRFVVHIARNYAGYGLPQADLIQEGNIGLMKAVRRFNPEVGVRLVSFAVHWIKAEIHEYVLRNWRIVKVATTKAQRKLFFNLRKTKQRLGWFNQDEVEMVARELGVTSKDVREMESRMAAQDMTFDLSSDDDSDSQPMAPVLYLQDKSSNFADGIEDDNWEEQAANRLTDAMQGLDERSQDIIRARWLDEDNKSTLQELADRYGVSAERVRQLEKNAMKKLRAAIEA	not soluble
MGSDKIHHHHHHMTDMTYDVEQDVVAESERISAIFSEVLDIGQVAATDNFFNLGGDSFDAIRVMSRLDGNLPIVALFEHPTAETLARFRLTEESLAITRLVPLFDQTKTNGPIVVICVPYGGGDPTAYRDLFNDHPDVRVFGVDFGDAEIHSPSDFSGLINTLVNEIEAIDAEQIIVYGHCAGAATAACLASAITFTTSAVSLVVAASNPVDDPDAAIHDAAMTSDADWGQYLRSLGAFNGLTDKETDAMLTKGRRDHFIATEAYRTLARQPARGIPAMLLLGDKDPATVKVEEIVNKWRKIIDLVKSANVTGGEHYFIRTHAQEVASKVLSFQLKHK	not soluble
MGSDKIHHHHHHMTEADLFVSQFLTEKLTALFPNVPVLSEENCHISFEERKNWKEYWLIDPLDGTQQFINRTDQFSVLITLVRKNKPVLSVIHAPILSTTYYAMCDFGTFKKQLDQVKKLTKNTTNFDRPLRIAVGATTSQEKVRSILPKDFPCEFVVVGSSSLKSGLVAEGAVDCYVRLGQTGEWDTAGAEVLLGETHGAIFDSHFEPLTYNQRETLINPHFVMVGDQSFDWRSIFQFN	not soluble
MGSDKIHHHHHHMTEDQAFWNAFAPDYAAAEQASRLPIAHDVIAWLRSTQLLPAHSAVDLAAGTGRYAVQMMPWVQELTLIDWSSAMLAFAKERMHQQADTKAQFIVADWRKLHKPLNADMLFVSQLPTLKPQDLKMLMNWASQTVVLNFQTAQSDALLEQAASLLGLQLPPVYQADPARMISFKVWLTAQRIPFQSHSLTYEIEEQTTLSDLLPDLATPIGLKTAASLAKAITGHENTHVQVTDRLTYTYTQLVWHV	not soluble
MGSDKIHHHHHHMTEKIRVAVVGAAGAFGMKHLDGLMNIPDVEVTVVSGTRLEPTQAVAEKYGVENAVVGLDAVLERDDVDAVILATPTGLHASQTQAVLAAGKHVQVEIPLADSIVDAEAALEAAESSNRVAMVGHTRRFNPSHQLVHNRIASGEFHVQQMDVQTYFFRRTNTNAKGEARSWTDHLLWHHAAHTVDLFAYQAGKIVHANAIQGPIHPELGIAMDMSIQLKSESGAICTLSLSFNNNGPFGTFFRYIGDTETYIARYDDLYNGREEPIDVSHVAVSMNGIELQDREFISAIREGREPNSSLRHVIDCYRVLGSLEKQLS	not soluble
MGSDKIHHHHHHMTEKKTMLEKLKKLMHHFTLSLDDISVETSRARQLSIRTEIDRLRSNERYKEPKSLIPFGGKIYSQNDEDGIIREIFNRIGTTNKVFVEFGIGNGLENNTLALLFEDWQGLWIDASSDSITSIRNHFSEIIGSGKLAVVESFITKANIDNLIATNVKHREIDLLSVDIDGNDYHVLQAISCITPRVIVIEYNAKFAPPVLFCMDYTETHMWTGDDCFGASLKFLETNLNKMGYCLVGCNLTGANAFFIRRELVTNKFLEPFTAENHFEPARYYLSGYASGHTPTYETLARSLTMRVS	not soluble
MGSDKIHHHHHHMTESQALIWDETFPSLLLKGQGTTSFLHGQTTADVFAQKELDRIFMCCWLSTKGALKAVLEIRLSDDMAEIVIICGEINSIRDGFESVIFPADKVKLEVIDPIRRRQEINNNSSWKDSDFSWIDDNTFSIDGITKYKKATKEELEGWKIRQGIPSFDKEMNGETNPYELGLADTINLDKGCYLGQEAMAKFFRSKSLKYQLRYWEAYGENDNFQIGKKFFNTNKNEGYKKNVGVVTSSIRVDDNFFNGLALIKKTFLDHDFCFSENGDSITIKKPISFTNPF	not soluble
MGSDKIHHHHHHMTETTSQMRREVLEIPAAIDRLLSQGTPEIARIAAAVAKADPRFAVTVARGSSDHACTFLKYALELELGLPVASIGPSVASIYGAQLKLANSITLSVSQSGKSPDIVAMSRAATEGDSFTVAITNDAQSPLSDASSHTIDIHAGPEISVAATKTFVTSAAAGLILLAEWKDDDILRAALRGLPECLSKAATHDWPDLRAAIGSASSLFTLGRGPAWAISNEAALKFKETCQIHAESYSSAEVLHGPVSIVGGGFPVLCFASGDAAEASVTDVADQLAAKGARVFVTSDKADTAHCLPHVRTGHPLTDPLALIVSFYAMIEKVAAERGVNPDAPRHLNKVTETV	not soluble
MGSDKIHHHHHHMTFSAKNAAGETTGGVFTVALDRCAVYGRASSGAVCGSLLESAGWRPAAGSRVLVKPNLLRAQPDGLCCTHPQVVRAAVEYALDCGAVVTVGDSPAFGSAERVAQAVGLTDALQGLGVRVVTLDDPVDCRLPSGLRVGVARAALEADALLNVPRVKVHCQMRLTLAVKNLFGCVCGVRKAVAHTRHGDRGNRFEALIVELAERLPPSGVLLDGITAMHRTGPSGGDPYLLGLLGASCSSVAMDTAVGTLLGAAPETIPLWAELRRRKQPAAFVENLHFPVLFPADFSPQGVTPDGFCIPQVLKPVSFRPATLLRSLVRRMWHRYGPSA	not soluble
MGSDKIHHHHHHMTHRRSKSVKIYLVGGAVRDSLLNLPIKDKDYMVVGATPEQMLQLGYRQVGKDFPVFLHPITQQEYALARTERKVGLGYGGFSCYASPDVTLEQDLLRRDLTINAIAQDEEGNLHDPFNGIGDLNARLLRHVSDAFIEDPLRVLRVARFAARFHHLGFQIADSTLQLMQQIAQSGELNALTPERVWQEVDKTLSGSNPEVFFEVLRQCGALKVLFPELDALFGIPQPEKWHPEIDTGLHTLMVLAQAAILTQDKAVRFAALVHDLGKAITPIEHLPKHHGHGQKGLPIIKALCERLRIPNEFRDLALIVSDQHQNVHQAFKLRPETIIKIFDKADFWRKPERLKQLVQACIADMRGRTGFEHQDYPQGEYFSQCFAVASNVNIKAIIQAGFKGEEIKQILHMHRIDAVGQLKRDKQNAVD	not soluble
MGSDKIHHHHHHMTIDTSFNFKSDTPAEKDPDTWSPTLAAYHKLLWSKSLPNGRVFTLEYEKPPFYLRHRSDVGEFCLSSDTVVPSFRKKTIDGVAKDEMNFGGLGYTIGGMMVFPAIPIERKWTINQARGCNRKISDRFDLTVECIRRYYSDAQSPLDDVLRRYVDFFTLFRDFAGYVEFFHLQDVVNSDFTAVKFFLPFEDFEATSPIPQSRDAYLQYRSAAIDFLNARNQRIQNWVAKNIKG	not soluble
